Patent US20050079613

How the values were obtained:
[1] = molecular target: T1, GST-MmUbc6
T1 sequence (Q9JJZ4 whole entry, looked up): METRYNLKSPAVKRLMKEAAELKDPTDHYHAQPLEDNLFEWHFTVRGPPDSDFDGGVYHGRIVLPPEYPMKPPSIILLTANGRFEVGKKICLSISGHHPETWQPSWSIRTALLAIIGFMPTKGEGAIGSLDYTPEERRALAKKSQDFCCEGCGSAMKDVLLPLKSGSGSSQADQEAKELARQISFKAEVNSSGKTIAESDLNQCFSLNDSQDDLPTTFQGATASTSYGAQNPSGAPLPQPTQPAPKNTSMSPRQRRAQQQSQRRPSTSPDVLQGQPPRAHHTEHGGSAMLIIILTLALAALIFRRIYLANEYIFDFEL

[2] = molecular target: GST-UbCH5a, P51668
[3] = molecular target: three human E2 enzymes UbCH2, UbCH3 and UbCH5a (at least one of these three enzymes)
[4] = molecular target: T2, GST-MmUbc7, P60605
T2 chain: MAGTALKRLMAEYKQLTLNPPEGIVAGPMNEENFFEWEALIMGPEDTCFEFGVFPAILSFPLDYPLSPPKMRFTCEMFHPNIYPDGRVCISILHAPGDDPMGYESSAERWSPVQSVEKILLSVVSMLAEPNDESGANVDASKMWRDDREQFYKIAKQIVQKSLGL

[5] = molecular target: E2 enzymes tested
[6] = molecular target: T3, UbCH2, P62256
T3 chain: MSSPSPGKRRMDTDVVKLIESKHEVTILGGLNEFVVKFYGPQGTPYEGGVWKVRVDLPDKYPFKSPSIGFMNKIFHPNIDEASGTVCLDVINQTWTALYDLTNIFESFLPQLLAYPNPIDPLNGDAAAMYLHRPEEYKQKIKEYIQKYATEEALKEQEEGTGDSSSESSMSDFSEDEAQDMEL

Chain of GST-UbCH5a, P51668 (P51668 whole entry): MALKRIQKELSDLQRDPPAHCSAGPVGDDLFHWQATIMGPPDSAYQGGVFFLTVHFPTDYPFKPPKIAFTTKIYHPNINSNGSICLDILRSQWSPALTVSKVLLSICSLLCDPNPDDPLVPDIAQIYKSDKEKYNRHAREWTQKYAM

B1: GST-ICP0-RING (amino acids 1-241 of ICP0) (protein)
chain: MEPRPGASTRRPEGRPQREPAPDVWVFPCDRDLPDSSDSEAETEVGGRGDADHHDDDSASEADSTDTELFETGLLGPQGVDGGAVSGGSPPREEDPGSCGGAPPREDGGSDEGDVCAVCTDEIAPHLRCDTFPCMHRFCIPCMKTWMQLRNTCPLCNAKLVYLIVGVTPSGSFSTIPIVNDPQTRMEAEEAVRAGTAVDFIWTGNQRFAPRYLTLGGHTVRALSPTHPEPTTDEDDDDLDD
- formation of high-molecular weight ubiquitin complexes in vitro (anti-ubiquitin blot) [1]: The ICP0-RING domain also showed some activity with the murine ER-bound E2 enzyme MmUbc6
- formation of high-molecular weight ubiquitin complexes in vitro (anti-ubiquitin blot) [2]: ICPO promoted the formation of high-molecular weight complexes in the presence of the E2 enzyme ubCH5a

B2: GST fusion of the MARCH-I RING-CH domain (protein)
chain: MTSSHVCCNFLNMWKKSKISTMYYLNQDAKLSNLFLQASSPTTGTAPRSQSRLSVCPSTQDICRICHCEGDEESPLITPCRCTGTLRFVHQSCLHQWIKSSDTRCCELCKYDFIMETKLKPLRKWEKLQMTTSERRK
- formation of high-molecular weight ubiquitin complexes in vitro (anti-ubiquitin blot) [3]: The RiNG-CH-GST fusion proteins of all four MARCH-proteins tested were able to catalyze the formation of high-molecular weight molecular ubiquitin complexes in the presence of at least one of these three enzymes
- promotion of ubiquitination in vitro [4]: Whereas MARCH-II was able to function with both proteins, MARCH-I was only active with MmUbc6
- promotion of ubiquitination in vitro [1]: MARCH-I was only active with MmUbc6
- formation of high-molecular weight ubiquitin complexes in vitro (anti-ubiquitin blot) [2]: MARCH-I was less active with most E2 enzymes tested with the notable exception of UbCH5a
- formation of high-molecular weight ubiquitin complexes in vitro (anti-ubiquitin blot) [5]: MARCH-I was less active with most E2 enzymes tested with the notable exception of UbCH5a

B3: GST fusion of the MARCH-IV RING-CH domain (protein)
chain: WYCYGLCAPAPQMLRHQGLLKCRCRMLFNDLKVFLLRRPPQAPLPMHGDPQPPGLAANNTLPALGAGGWAGWRGPREVVGREPPPVPPPPPLPPSSVEDDWGGPATEPPASLLSSASSDDFCKEKTEDRYSLGSSLDSGMRTPLCRICFQGPEQGELLSPCRCDGSVKCTHQPCLIKWISERGCWSCELCYYKYHVIAISTKNPLQWQAISLTVIEKVQ
- formation of high-molecular weight ubiquitin complexes in vitro (anti-ubiquitin blot) [3]: The RiNG-CH-GST fusion proteins of all four MARCH-proteins tested were able to catalyze the formation of high-molecular weight molecular ubiquitin complexes in the presence of at least one of these three enzymes
- formation of high-molecular weight ubiquitin complexes in vitro (anti-ubiquitin blot) [6]: MARCH-IV was mostly active with UbCH2
